The values that follow come from US20260151429A1 (NANJING LEGEND BIOTECH, published 2026).

Test [1] addresses IL13RA2 on tumor cell lines (U251MG.Luc, U87MG.Luc, U87MG.Luc clone2, U138MG.Luc, A375.Luc) (UniProt Q14627). In words: cell-based or functional assay.
The target in test [2] is T1, Recombinant IL13RA2-His protein (Sino Biological, Cat #10350-H08H) (human, UniProt Q14627 27-343).
T1 construct: Bought protein; also called human IL13RA2 his-tag protein; IL13AR2; not shown: His tag
T1 sequence (looked up): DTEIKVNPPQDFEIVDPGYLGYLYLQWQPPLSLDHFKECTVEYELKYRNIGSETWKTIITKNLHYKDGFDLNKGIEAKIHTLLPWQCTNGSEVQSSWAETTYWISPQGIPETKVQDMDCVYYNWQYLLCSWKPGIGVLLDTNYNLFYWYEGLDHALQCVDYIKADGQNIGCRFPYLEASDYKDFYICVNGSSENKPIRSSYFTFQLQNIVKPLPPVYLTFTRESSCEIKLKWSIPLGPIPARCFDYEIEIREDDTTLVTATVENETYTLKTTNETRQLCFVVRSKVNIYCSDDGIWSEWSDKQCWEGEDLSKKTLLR
In words: SPR, Biacore 2000; VHH-mIgG1Fc coupled to CM5 chip, IL13RA2-His injected; 1:1 Langmuir fit. As for the experimental part: The affinity of each VHH-mIgG1Fc for IL13AR2 was determined by SPR using a BIACORE® 2000 analytical system (GE Healthcare). Briefly, each VHH-mIgG1Fc protein was covalently coupled to a CM5(s) sensor chip using 4 μg/ml VHH-mIgG1Fc. Recombinant IL13RA2-His protein (Sino Biological, Cat #10350-H08H) was serially diluted in running buffer (10 mM HEPES, 150 mM NaCl, 3 mM EDTA, 0.05% Tween-20, pH 7.4) and injected at a flowrate of 10 μl/min followed by dissociation. The association and dissociation rate constants were determined using the BIACORE® 2000 evaluation software version 3.0 (Langmuir binding, local fit, 1:1 binding model).
In general terms: In SPR one partner is held on a chip, and binding of the other changes the refractive index at the surface.

Test [3] has as its target T2, recombinant human IL13RA2 (human, UniProt Q14627 27-343).
T2 construct: Coating antigen of the phage ELISA screen; The immunogen was ACRO Cat. No. IL2-H52H5; also called antigen proteins
T2 sequence (looked up): T1 sequence (looked up)
The test is described as follows: phage ELISA on plates coated with recombinant human IL13RA2, anti-M13-HRP, A450. As for the experimental part:
Individual output phage clones were grown in 96-deep-well plates and rescued by M13KO7 helper phage overnight. To identify clones that bound to antigen proteins, 96-well ELISA microtiter plates were coated with recombinant human IL13RA2 in coating buffer overnight at 4° C., and the plates were then blocked with blocking buffer. After blocking, approximately 50 µL per well of phage supernatant from overnight cell culture was added to the plates for 1.5-hour incubation at 4° C. The plates were washed four times, and the HRP-conjugated anti-M13 monoclonal antibody was added to the plates for 45-minute incubation at 4° C. The plates were again washed five times and substrate solution was added to the wells for color developing. Absorbance at 450 nm was measured for each well.
A general note: ELISA stands for enzyme-linked immunosorbent assay.

In test [1], “IL13-E13Y CAR (from UniProt P35225 35-146)” showed an IFNγ release level, CAR-T co-cultured with U87MG.Luc (UnT 80) of 580 pg/mL; an IFNγ release level, CAR-T co-cultured with U138MG.Luc (UnT 70) of 252 pg/mL; an IFNγ release level, CAR-T co-cultured with U251MG.Luc (UnT 196) of 4360 pg/mL.

B1: VHH1330-mIgG1Fc (Fc fusion)
chain: QVQLVESGGGLVQPGGSLTLSCAASGYRISLYKMGWFRQDPGKQREGVAAVDRNGRTIYADSVKGRFTIYQDNAKNTLDLQMNSLKPEDTAMYYCAADLWRIGSPASLSPTDYGDWGQGTQVTVSSVPRDCGCKPCICTVPEVSSVFIFPPKPKDVLTITLTPKVTCVVVDISKDDPEVQFSWFVDDVEVHTAQTQPREEQFNSTFRSVSELPIMHQDWLNGKEFKCRVNSAAFPAPIEKTISKTKGRPKAPQVYTIPPPKEQMAKDKVSLTCMITDFFPEDITVEWQWNGQPAENYKNTQPIMNTNGSYFVYSKLNVQKSNWEAGNTFTCSVLHEGLHNHHTEKSLSHSPGK
notes: also called VHH-mIgG1Fc chimeric antibody; single VHH chimeric anti-IL13RA2 antibody
As a reminder, the Kd is a measure of binding affinity in units of concentration. By koff is commonly meant a measure of how fast the partners let go of each other. Broadly, the kon is the rate constant with which the complex forms. Turning to B1, in test [2], the Kd stood at 60 nM, the koff worked out at 0.0022 s⁻¹ and the kon came out at 37000 M⁻¹ s⁻¹.

B2: VHH1339 (VHH)
VHH: EVQLVESGGGSVQAGGSLKLSCAASGDIFSMCGMGWYRQAPGKQREMVSRISPRGTAIYPDSLKGRFTVSRDNAKNTLYLQMNSLNTEDTAVYYCAAGGDSASRTPHCRSLNWGQGTQVTVSS
In the case of B2, in test [3], the binding result is on record as “binds”.

B3: VHH2110 (VHH)
VHH: QVKLEESGGGSVQAGGSLRLSCAASGIPTRTLFMGWFRQAPGKEREEVARISDNGNTGYADFVKGRFTISKDNSKNTLYLQMSSLKPDDTAMYYCSARRASYSATVLWGQGTQVTVSS
For the molecule B3, the binding result in test [3] is listed as “binds”.

B4: VHH1330-(GGGGS)2-VHH1345-mIgG1Fc (Fc fusion)
chain: QVQLVESGGGLVQPGGSLTLSCAASGYRISLYKMGWFRQDPGKQREGVAAVDRNGRTIYADSVKGRFTIYQDNAKNTLDLQMNSLKPEDTAMYYCAADLWRIGSPASLSPTDYGDWGQGTQVTVSSGGGGSGGGGSAVQLVDSGGGSAQVGGSLKLSCTASGYIFSSCGMGWYRQAPGKKREFVTSVSKYGTTTYPDSVKGRFTISLDNAKNTAYLQMNSLKIEDTAVYYCTTLASRGTTCPASVYSGPGTQVTVSSVPRDCGCKPCICTVPEVSSVFIFPPKPKDVLTITLTPKVTCVVVDISKDDPEVQFSWFVDDVEVHTAQTQPREEQFNSTFRSVSELPIMHQDWLNGKEFKCRVNSAAFPAPIEKTISKTKGRPKAPQVYTIPPPKEQMAKDKVSLTCMITDFFPEDITVEWQWNGQPAENYKNTQPIMNTNGSYFVYSKLNVQKSNWEAGNTFTCSVLHEGLHNHHTEKSLSHSPGK
notes: Two VHH domains joined by (GGGGS)2 and fused to mouse IgG1 Fc; also called bi-VHH-mIgG1Fc; bi-VHH chimeric anti-IL13RA2 antibody
With B4, in test [2], the Kd was found to be 0.71 nM, the koff was determined as 5.4e-05 s⁻¹ and the kon amounted to 75000 M⁻¹ s⁻¹.

B5: VHH1345-mIgG1Fc (Fc fusion)
chain: AVQLVDSGGGSAQVGGSLKLSCTASGYIFSSCGMGWYRQAPGKKREFVTSVSKYGTTTYPDSVKGRFTISLDNAKNTAYLQMNSLKIEDTAVYYCTTLASRGTTCPASVYSGPGTQVTVSSVPRDCGCKPCICTVPEVSSVFIFPPKPKDVLTITLTPKVTCVVVDISKDDPEVQFSWFVDDVEVHTAQTQPREEQFNSTFRSVSELPIMHQDWLNGKEFKCRVNSAAFPAPIEKTISKTKGRPKAPQVYTIPPPKEQMAKDKVSLTCMITDFFPEDITVEWQWNGQPAENYKNTQPIMNTNGSYFVYSKLNVQKSNWEAGNTFTCSVLHEGLHNHHTEKSLSHSPGK
notes: as for B1
Regarding B5, in test [2], the Kd stood at 14 nM, the koff was 0.00045 s⁻¹ and the kon came to 33000 M⁻¹ s⁻¹.

B6: VHH1354 (VHH)
VHH: AVQLVDSGGGLVQPGGSLRLSCAASGFTFSTYGMSWVRQPPGKGLEWVSGISPGGDHTTYADSVKGRFTISRDNAKNTLYLQLSSLKTEDTAMYYCTTVPGRSRYGNYNPRGQGTQVTVSS
Turning to B6, the binding result in test [3] is on record as “binds”.

B7: VHH1366 (VHH)
VHH: QVKLEESGGGSVEAGGSLKLSCAGFGDMFSSCGMGWYRQAPGKEREMVSRISPRGTSITIDSVRGRFTISRDNAKNTLALEMNSLKIEDTAVYYCAAGGDSASRTPRCRSLNWGQGTQVTVSS
Take B7: the binding result in test [3] is given as “binds”.

B8: VHH1353 (VHH)
VHH: EVQLVESGGGSVQAGGSLRLSCAASGYTSSTNCMGWFRQAPGKEREGVASIRGTGGSTYYADSVKGRFTISRDDGKNTLYLQMNSLKPEDTAMYYCAAATGTSFSEARCVTAPPYKYPYWGQGTQVTVSS
For B8, the binding result in test [3] is on record as “binds”.

B9: VHH1343 (VHH)
VHH: QVKLEESGGGSVQAGGSLKLSCAASGYNFSKCGMGWFRRALREERELVAEISNDGTTTYDDSVKGRFTISRDNVKNTVYLQMNNLKTEDTAVYYCASRNPCGLLWGQGTQVTVSS
On to B9, for which the binding result in test [3] was “binds”.
